Test results from patent publication US20140348781A1.

How the values were obtained:
GMCSF receptor (GMCSFR) = GMCSF receptor (GMCSFR) (UniProt Q00941); assay: cell-based or functional assay
IL9 receptor (IL9R) = IL9 receptor (IL9R) (UniProt Q01114); assay: cell-based or functional assay
Sequence of UniProt Q01114 (Q01114 38-468 limits assumed, chain 1 of 2): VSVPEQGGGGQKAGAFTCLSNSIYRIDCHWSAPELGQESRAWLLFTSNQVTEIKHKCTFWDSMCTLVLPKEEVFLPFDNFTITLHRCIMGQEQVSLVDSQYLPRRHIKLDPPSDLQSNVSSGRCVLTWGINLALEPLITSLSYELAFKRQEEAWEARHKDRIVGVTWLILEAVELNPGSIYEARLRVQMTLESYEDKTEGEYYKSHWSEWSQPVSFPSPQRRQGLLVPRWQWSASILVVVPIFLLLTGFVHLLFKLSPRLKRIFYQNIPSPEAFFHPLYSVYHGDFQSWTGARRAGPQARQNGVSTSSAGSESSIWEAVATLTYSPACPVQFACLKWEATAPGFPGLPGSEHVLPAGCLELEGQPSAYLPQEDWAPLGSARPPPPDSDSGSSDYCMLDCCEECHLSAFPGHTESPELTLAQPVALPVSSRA
Sequence of UniProt Q01114 (P34902 23-369 limits assumed, chain 2 of 2, further chain): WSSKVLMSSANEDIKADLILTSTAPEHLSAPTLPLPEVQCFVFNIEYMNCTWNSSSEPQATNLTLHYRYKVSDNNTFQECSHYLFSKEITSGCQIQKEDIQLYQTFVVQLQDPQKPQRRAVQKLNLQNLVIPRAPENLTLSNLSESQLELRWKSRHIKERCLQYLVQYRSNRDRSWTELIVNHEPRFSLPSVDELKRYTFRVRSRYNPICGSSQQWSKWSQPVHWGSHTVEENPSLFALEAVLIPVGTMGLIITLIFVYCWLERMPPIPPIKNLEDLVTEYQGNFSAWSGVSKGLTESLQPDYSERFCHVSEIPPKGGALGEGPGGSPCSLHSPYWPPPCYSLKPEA

Sequence of UniProt Q00941 (Q00941 30-388, chain 1 of 2): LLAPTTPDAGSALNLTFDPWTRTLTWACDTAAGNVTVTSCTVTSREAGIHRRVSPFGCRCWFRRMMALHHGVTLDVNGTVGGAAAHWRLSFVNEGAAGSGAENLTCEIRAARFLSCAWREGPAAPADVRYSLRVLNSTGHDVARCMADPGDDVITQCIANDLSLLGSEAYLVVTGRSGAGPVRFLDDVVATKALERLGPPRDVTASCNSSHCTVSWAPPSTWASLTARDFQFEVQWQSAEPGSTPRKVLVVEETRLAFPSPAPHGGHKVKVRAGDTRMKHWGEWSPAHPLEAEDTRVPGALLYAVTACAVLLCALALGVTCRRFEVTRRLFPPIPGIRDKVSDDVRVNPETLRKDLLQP
Sequence of UniProt Q00941 (P26955 23-896, chain 2 of 2, further chain): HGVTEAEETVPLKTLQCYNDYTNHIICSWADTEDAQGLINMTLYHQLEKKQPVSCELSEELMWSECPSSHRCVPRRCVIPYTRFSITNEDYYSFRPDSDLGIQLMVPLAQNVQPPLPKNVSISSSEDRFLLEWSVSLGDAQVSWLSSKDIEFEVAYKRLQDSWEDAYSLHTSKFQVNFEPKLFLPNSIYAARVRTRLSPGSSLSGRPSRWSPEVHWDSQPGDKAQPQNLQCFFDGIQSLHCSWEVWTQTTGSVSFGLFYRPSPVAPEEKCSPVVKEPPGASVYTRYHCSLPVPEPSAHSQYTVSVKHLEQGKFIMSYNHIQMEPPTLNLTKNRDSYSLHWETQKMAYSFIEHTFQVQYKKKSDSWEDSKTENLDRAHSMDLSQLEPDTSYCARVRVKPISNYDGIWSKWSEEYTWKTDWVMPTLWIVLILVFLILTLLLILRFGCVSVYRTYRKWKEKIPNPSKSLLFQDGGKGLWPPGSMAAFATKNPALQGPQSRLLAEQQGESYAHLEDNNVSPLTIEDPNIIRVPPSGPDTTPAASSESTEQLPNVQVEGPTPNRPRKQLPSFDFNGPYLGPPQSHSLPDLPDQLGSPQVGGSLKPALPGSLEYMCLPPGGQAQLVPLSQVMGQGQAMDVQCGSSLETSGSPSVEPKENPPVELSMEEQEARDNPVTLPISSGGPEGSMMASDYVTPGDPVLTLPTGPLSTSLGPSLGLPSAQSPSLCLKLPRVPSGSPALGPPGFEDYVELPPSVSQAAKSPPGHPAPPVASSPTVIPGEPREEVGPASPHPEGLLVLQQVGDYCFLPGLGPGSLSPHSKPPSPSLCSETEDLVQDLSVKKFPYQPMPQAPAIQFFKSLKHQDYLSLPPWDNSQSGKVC

proliferative rate of bone marrow derived mast cells (MTT assay, 5 days) (GMCSF receptor (GMCSFR)): 100%
proliferative rate of bone marrow derived mast cells (MTT assay, 5 days) (IL9 receptor (IL9R)): 100%
Substance: mouse GIFT9 (fusion of mouse GMCSF and mouse IL9) (ligand)
